Patent US6627739

Experiments:
[1] = target: MBP-C125sw fusion protein [MBP: P0AEX9]
[2] = target: Swedish mutant APP (βAPP 751 sw) expressed from pohCK751 in 293T cells, P05067
[3] = target: wild-type APP (βAPP 751) expressed from pohCK751 in 293T cells, P05067
Sequence of wild-type APP (βAPP 751) expressed from pohCK751 in 293T cells, P05067 (P05067 whole entry, looked up): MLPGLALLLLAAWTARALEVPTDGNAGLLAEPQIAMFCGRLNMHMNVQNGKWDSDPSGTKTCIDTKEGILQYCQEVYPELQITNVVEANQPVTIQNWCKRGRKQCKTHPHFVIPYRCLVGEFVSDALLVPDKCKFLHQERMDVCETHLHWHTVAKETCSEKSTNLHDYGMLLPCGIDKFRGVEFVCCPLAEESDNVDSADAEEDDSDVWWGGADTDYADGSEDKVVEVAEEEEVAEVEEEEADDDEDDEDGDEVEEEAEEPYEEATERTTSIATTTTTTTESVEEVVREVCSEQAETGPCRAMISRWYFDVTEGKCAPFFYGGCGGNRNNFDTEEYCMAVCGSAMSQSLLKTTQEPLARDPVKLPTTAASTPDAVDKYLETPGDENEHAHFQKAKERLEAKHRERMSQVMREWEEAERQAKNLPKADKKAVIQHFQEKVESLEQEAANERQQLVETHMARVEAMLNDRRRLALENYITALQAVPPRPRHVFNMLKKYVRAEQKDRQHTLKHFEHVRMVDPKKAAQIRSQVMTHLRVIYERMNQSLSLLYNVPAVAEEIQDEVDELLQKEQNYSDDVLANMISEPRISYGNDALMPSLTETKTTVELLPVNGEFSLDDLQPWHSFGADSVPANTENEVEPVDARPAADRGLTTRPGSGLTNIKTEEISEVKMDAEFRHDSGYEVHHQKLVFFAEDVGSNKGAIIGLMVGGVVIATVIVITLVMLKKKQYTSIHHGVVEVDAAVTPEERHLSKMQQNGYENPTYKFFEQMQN

Sequence of Swedish mutant APP (βAPP 751 sw) expressed from pohCK751 in 293T cells, P05067 (P05067 whole entry, looked up, change not shown): as the sequence (P05067 whole entry, looked up) above

B1: 452stop, recombinant β-secretase truncated at position 452 (1-452) (protein)
chain: ETDEEPEEPGRRGSFVEMVDNLRGKSGQGYYVEMTVGSPPQTLNILVDTGSSNFAVGAAPHPFLHRYYQRQLSSTYRDLRKGVYVPYTQGKWEGELGTDLVSIPHGPNVTVRANIAAITESDKFFINGSNWEGILGLAYAEIARPDDSLEPFFDSLVKQTHVPNLFSLQLCGAGFPLNQSEVLASVGGSMIIGGIDHSLYTGSLWYTPIRREWYYEVIIVRVEINGQDLKMDCKEYNYDKSIVDSGTTNLRLPKKVFEAAVKSIKAASSTEKFPDGFWLGEQLVCWQAGTTPWNIFPVISLYLMGEVTNQSFRITILPQQYLRPVEDVATSQDDCYKFAISQSSTGTVMGAVIMEGFYVVFDRARKRIGFAVSACHVHDEFRTAAVEGPFVTLDMEDCGYNIPQTDEYKDDDDK
**Q.** For B1, which cleavage of substrate [1] is on record?
**A.** The C-terminal truncated form of the enzyme exhibited activity in leaving the MBP-C125sw substrate as well as the P26-P4′ substrate

B2: FLp501, full length recombinant β-secretase having a C-terminal flag sequence (protein)
chain: ETDEEPEEPGRRGSFVEMVDNLRGKSGQGYYVEMTVGSPPQTLNILVDTGSSNFAVGAAPHPFLHRYYQRQLSSTYRDLRKGVYVPYTQGKWEGELGTDLVSIPHGPNVTVRANIAAITESDKFFINGSNWEGILGLAYAEIARPDDSLEPFFDSLVKQTHVPNLFSLQLCGAGFPLNQSEVLASVGGSMIIGGIDHSLYTGSLWYTPIRREWYYEVIIVRVEINGQDLKMDCKEYNYDKSIVDSGTTNLRLPKKVFEAAVKSIKAASSTEKFPDGFWLGEQLVCWQAGTTPWNIFPVISLYLMGEVTNQSFRITILPQQYLRPVEDVATSQDDCYKFAISQSSTGTVMGAVIMEGFYVVFDRARKRIGFAVSACHVHDEFRTAAVEGPFVTLDMEDCGYNIPQTDESTLMTIAYVMAAICALFMLPLCLMVCQWRCLRCLRQQHDDFADDISLLKYKDDDDK
**Q.** With B2 as the protein, how does the cleavage of substrate [1] read?
**A.** Both enzymes exhibited activity in cleaving β-secretase substrates such as MBP-C125

B3: recombinant full-length human β-secretase (1-501) expressed from pCEK clone 27 / pCFβA2 in 293T or Cos A2 cells (protein)
chain: ETDEEPEEPGRRGSFVEMVDNLRGKSGQGYYVEMTVGSPPQTLNILVDTGSSNFAVGAAPHPFLHRYYQRQLSSTYRDLRKGVYVPYTQGKWEGELGTDLVSIPHGPNVTVRANIAAITESDKFFINGSNWEGILGLAYAEIARPDDSLEPFFDSLVKQTHVPNLFSLQLCGAGFPLNQSEVLASVGGSMIIGGIDHSLYTGSLWYTPIRREWYYEVIIVRVEINGQDLKMDCKEYNYDKSIVDSGTTNLRLPKKVFEAAVKSIKAASSTEKFPDGFWLGEQLVCWQAGTTPWNIFPVISLYLMGEVTNQSFRITILPQQYLRPVEDVATSQDDCYKFAISQSSTGTVMGAVIMEGFYVVFDRARKRIGFAVSACHVHDEFRTAAVEGPFVTLDMEDCGYNIPQTDESTLMTIAYVMAAICALFMLPLCLMVCQWRCLRCLRQQHDDFADDISLLK
**Q.** For B3, which “Aβ(x-40) production, ELISA of conditioned media” value [2] is on record?
**A.** approximate 2-fold increase in Aβ(x-40)

**Q.** And the “Aβ(x-40) production, ELISA of conditioned media” value [3]?
**A.** approximately 8-fold increase in Aβ(x-40) production

B4: naturally occurring human β-secretase purified from human brain (protein)
chain: B3 chain
**Q.** How did the Specific Activity (MBP-C125 sw assay), Anion Exchange Pool (nM/h/µg prot.) [1] turn out when B4 was run?
**A.** 1.49e+06
